The assay concerns the target T1, Prostacyclin synthase (PTGIS), truncated, His-tagged, with Avi-tag, biotinylated (UniProt Q16647 1-500, biotin (in vivo biotinylation of the Avi-tag)).
T1 construct: Prostacyclin synthase (PTGIS; EC 5.3.99.4), truncated (by the membrane domain); Held on the streptavidin (SA) chip; also called biotinylated PTGIS; PTGIS immobilized on the optical chip; source: E. coli BL21(DE3), purified (Ni-NTA, SEC)
T1 sequence (looked up): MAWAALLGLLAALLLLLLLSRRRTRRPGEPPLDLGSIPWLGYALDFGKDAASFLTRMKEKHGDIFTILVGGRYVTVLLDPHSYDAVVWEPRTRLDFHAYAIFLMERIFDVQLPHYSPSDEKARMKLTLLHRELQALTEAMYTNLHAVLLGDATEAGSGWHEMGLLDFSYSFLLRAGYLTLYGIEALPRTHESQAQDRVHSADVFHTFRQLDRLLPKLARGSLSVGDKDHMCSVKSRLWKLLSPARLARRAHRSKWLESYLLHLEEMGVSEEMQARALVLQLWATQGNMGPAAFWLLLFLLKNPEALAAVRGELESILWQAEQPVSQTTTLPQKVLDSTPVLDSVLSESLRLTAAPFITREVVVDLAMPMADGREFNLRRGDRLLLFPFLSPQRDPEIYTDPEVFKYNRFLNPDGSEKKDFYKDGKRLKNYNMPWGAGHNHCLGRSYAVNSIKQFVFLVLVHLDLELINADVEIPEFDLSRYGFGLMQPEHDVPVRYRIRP
As to the kind of experiment: SPR; biotinylated PTGIS on a streptavidin (SA) chip, purified protein injected as analyte; 25 °C, Biacore T-200. The settings on record: both partners purified. A general note: Surface plasmon resonance follows binding to a sensor surface in real time, without labels.

B1: Cytochrome P450 2J2 (CYP2J2), truncated and His-tagged (enzyme)
chain: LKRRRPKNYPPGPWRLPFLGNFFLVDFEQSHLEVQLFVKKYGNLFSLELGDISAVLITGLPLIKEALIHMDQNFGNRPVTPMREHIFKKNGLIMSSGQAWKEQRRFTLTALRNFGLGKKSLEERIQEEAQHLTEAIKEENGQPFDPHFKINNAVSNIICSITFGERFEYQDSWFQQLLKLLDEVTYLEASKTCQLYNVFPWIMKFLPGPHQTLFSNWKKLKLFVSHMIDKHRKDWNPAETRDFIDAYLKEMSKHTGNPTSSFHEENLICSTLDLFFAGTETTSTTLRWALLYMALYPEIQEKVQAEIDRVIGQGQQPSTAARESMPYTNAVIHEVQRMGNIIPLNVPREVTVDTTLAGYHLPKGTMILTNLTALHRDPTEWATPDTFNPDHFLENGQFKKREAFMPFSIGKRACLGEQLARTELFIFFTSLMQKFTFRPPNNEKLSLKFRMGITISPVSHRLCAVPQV
As usually defined, the Kd is the concentration at which binding is half-saturated. A lower Kd goes with higher affinity. On to B1, for which the Kd worked out at 200 nM. That is a sub-micromolar value.

Source of the values: article PMC6628129 (Biology, 2019).
